Tests used:
Assay type in all cases: biochemical, Entamoeba histolytica
[1] = substrate: Nc1ncnc2c1ncn2[C@@H]1O[C@H](COP(=O)(O)OP(=O)(O)O)[C@@H](O)[C@H]1O; experiment: purified protein; details: reverse reaction, 40 mM G3P, 5 mM MgSO4, 1 mM EDTA, 50 mM Tris HCl pH 7.5
[2] = substrate: O=P(O)(O)OC[C@H](O)CO; experiment: purified protein; details: reverse reaction, 1 mM ADP, 5 mM MgSO4, 1 mM EDTA, 50 mM Tris HCl pH 7.5
[3] = substrate: Nc1ncnc2c1ncn2[C@@H]1O[C@H](COP(=O)(O)OP(=O)(O)OP(=O)(O)O)[C@@H](O)[C@H]1O; experiment: coupled fluorescence assay (ADP hexokinase, G6P dehydrogenase, diaphorase; resazurin reduction); details: forward reaction, 2 mM glycerol, 5 mM MgCl2, 50 mM Tris HCl pH 7.5, 37 °C, 10 mM N-ethylmaleimide
Source text: (§1) coupled fluorescence assay (ADP hexokinase, G6P dehydrogenase, diaphorase; resazurin reduction) on EhGK (rEhGK, recombinant E. histolytica glycerol kinase)

[4] = substrate: OCC(O)CO; experiment: as above; details: forward reaction, 2 mM ATP, 5 mM MgCl2, 50 mM Tris HCl pH 7.5, 37 °C, 10 mM N-ethylmaleimide
Source text: as §1

B1: EhGK (rEhGK, recombinant E. histolytica glycerol kinase) (Entamoeba histolytica HM-1:IMSS) (protein)
chain: MKYILAIDQGTTSTRVILFDEKCQSIHTEQEEFDSIFPHPGWVEQDPEVIYTSVVNLMKKCLVNTGINKEDIAAIGITNQRETTVMWDKRTGKPIYNAIVWQSKQSGNETSYLMEKGYEEIFQSKTGLVLNPYFSASKIMWIFNNVEGAKALAEEGVLLFGTIDTWIIYNLTGGQSHSTDISNAARTLLFNIYEKKWDDELLAKTNIPKSILPIVKQSSDDFGIVSTIQEFNGIHITGVAGDQQASLFGHGSPIGGCKSTYGTGCFVVKNIGDTIKEIPKGLLATVGWEINGKITYALEGTVMTAGAALKWIRDIGILKDYNEISKIVTSKNGGVYFVPAFQGLGTPYWDDDVRGIIVGLTSGTGKGELVRATLESIALQCAQVIEIMGKINEIKVDGGVSRSDCMLQFQADICNCTVIRLKEKEITAMGAAMLAGLYVHLFKEDELDSMRVIEHVFKPQMSEEERKQIFSVWNKAVESARSFVH
Question: How did the Km [1] turn out when B1 was run?
Answer: Its Km is 140 ± 40 µM.

Question: What about the Vmax [1] of the same protein?
Answer: The Vmax was 1.2 µmol/min/mg.

Question: What about the Km [2] of the same protein?
Answer: Its Km is 8710 ± 2460 µM.

Question: And the Vmax [2]?
Answer: The Vmax was 1.28 µmol/min/mg.

Question: And the Km [3]?
Answer: Its Km is 230 ± 30 µM.

Question: And the Vmax [3]?
Answer: The Vmax was 1.3 µmol/min/mg.

Question: And the Km [4]?
Answer: Its Km is 160 ± 30 µM.

Question: What about the Vmax [4] of the same protein?
Answer: The Vmax was 1.48 µmol/min/mg.

— article PMC10480196, “Glycerol biosynthetic pathway plays an essential role in proliferation and antioxidative defense in the human enteric protozoan parasite Entamoeba histolytica” (Scientific Reports, 2023)
